Source: patent US20230295259A1 (Protagonist Therapeutics, Inc., priority 2020, published 2023)
Read-outs that look alike come from different tables or passages of the source. Starred links: 1 amine or outer side, 2 acyl side, 3 side chain; linkers in the order of their positions; H or OH if unused. Positions of bridges follow the written chain, without caps; N, C: chain ends. Non-standard residues stand in square brackets, D forms with d. Groups on a side chain read outwards from the residue. Primed or numbered codes have the meaning given here. No end group written: not given here. *: point of attachment. 2Peg11′ = —[C(O)—CH2—CH2—(OCH2CH2)12—NH]— (PEG12 unit); PEG12 = NCCOCCOCCOCCOCCOCCOCCOCCOCCOCCOCCOCCOCCC(=O)O; C18 diacid = O=C(O)CCCCCCCCCCCCCCCCC(=O)*; Dip = N[C@H](C(=O)O)C(c1ccccc1)c1ccccc1; γGlu = O=C(O)[C@H](CCC(=O)[*:2])N[*:1]; Palmitoyl = CCCCCCCCCCCCCCCC(=O)*; β3hF = N[C@H](CC(=O)O)Cc1ccccc1; Isovaleryl = CC(C)CC(=O)*; AEEA = NCCOCCOCC(=O)O

T1: human ferroportin (SLC40A1) fused in frame with GFP, stably expressed in HEK293 cells (human, UniProt Q9NP59 1-571)
T1 sequence (looked up): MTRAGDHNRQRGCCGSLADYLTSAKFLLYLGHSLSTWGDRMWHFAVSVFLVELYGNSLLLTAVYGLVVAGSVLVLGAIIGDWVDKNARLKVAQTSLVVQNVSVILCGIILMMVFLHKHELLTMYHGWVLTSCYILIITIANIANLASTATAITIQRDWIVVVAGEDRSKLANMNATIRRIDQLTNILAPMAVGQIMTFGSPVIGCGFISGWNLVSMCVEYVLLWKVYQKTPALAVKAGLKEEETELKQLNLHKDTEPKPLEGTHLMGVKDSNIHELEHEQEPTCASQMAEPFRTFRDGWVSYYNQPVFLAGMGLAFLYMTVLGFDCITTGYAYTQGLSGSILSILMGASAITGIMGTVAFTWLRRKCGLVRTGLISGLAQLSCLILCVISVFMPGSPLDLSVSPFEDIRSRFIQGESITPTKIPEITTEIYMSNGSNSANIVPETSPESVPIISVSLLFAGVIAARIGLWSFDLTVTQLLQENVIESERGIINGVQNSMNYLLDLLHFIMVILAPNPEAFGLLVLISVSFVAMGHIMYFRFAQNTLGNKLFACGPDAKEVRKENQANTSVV

T2: ferroportin endogenously expressed on T47D human breast carcinoma cells (human, UniProt Q9NP59 1-571)
T2 sequence (looked up): T1 sequence (looked up)

B1: Compound 202 (peptide)
peptide: XETXXPCIXXXC
modifications: Isovaleric Acid-E-T-[His_1Me]-[Dpa]-P-C-I-[Lys(PEG12_Palm)]-[bhPhe]-[(D)Lys]-C-NH2
B2: Compound 12 (peptide)
peptide: XETHXPCIXXXC
modifications: Isovaleric Acid-E-T-H-[Dpa]-P-[Cys]-I-[Lys(1Peg2_1Peg2_Ahx_C18_Diacid)]-[bhPhe]-[(D)Lys]-[Cys]-NH2
B3: Compound 278 (peptide)
peptide: XETHXPCIXXXC
modifications: Isovaleric Acid-E-T-H-[Dpa]-P-C-I-[Lys(1PEG2_1PEG2_Dap_C18_Diacid)]-[bhPhe]-[(D)Lys]-C-NH2
B4: Compound 202 (peptide)
peptide: XETXXPCIXXXC
modifications: Isovaleric Acid-E-T-[His_1Me]-[Dpa]-P-C-I-[Lys(PEG12_Palm)]-[bhPhe]-[(D)Lys]-C-NH2
B5: Compound 279 (peptide)
peptide: XXTHXPCIXXXC
modifications: Isovaleric Acid-[Glu_OMe]-T-H-[Dpa]-P-C-I-[Lys(1PEG2_1PEG2_Dap_C18_Diacid)]-[bhPhe]-[(D)Lys]-C-NH2
B6: Compound 6 (peptide)
peptide: XETHXPCIXXXXC
modifications: Isovaleric Acid-E-T-H-[Dpa]-P-[Cys]-I-[(D)Lys]-[bhPhe]-[Lys(Ahx_Palm)]-[(D)Lys]-[Cys]-NH2
B7: Compound 19 (peptide)
peptide: XETHXPCIXXXXC
modifications: Isovaleric Acid-E-T-H-[Dpa]-P-[Cys]-I-[(D)Lys(2Peg11′_OMe)]-[bhPhe]-[Lys(Ahx_Palm)]-[(D)Lys(2Peg11′_OMe)]-[Cys]-NH2
B8: Compound 256 (peptide)
peptide: XETHXPCIXXXC
modifications: not fully specified; Isovaleric Acid-E-T-H-[Dpa]-P-C-I-[Lys(1PEG2_1PEG2_Ahx_C18_Diacid)]-[bhPhe]-[(D)Lys(PEG7_OMe)]-C-NH2
B9: Compound 53 (peptide)
peptide: XETHXPCIXXXC
modifications: Isovaleric Acid-E-T-H-[(4F)Phe]-P-[Cys]-I-[Lys(2Peg11′_Palm)]-[bhPhe]-[(D)Lys]-[Cys]-NH2
B10: Compound 2 (peptide)
peptide: XETHXPCIXXXXC
modifications: Isovaleric Acid-E-T-H-[Dpa]-P-[Cys]-I-[(D)Lys]-[Dpa]-[Lys(2Peg11′_Palm)]-[(D)Lys]-[Cys]-NH2

Tests used:
Experiment in all cases: cell-based or functional assay
[1] = target: T1, human ferroportin (SLC40A1) fused in …
[2] = target: T1, human ferroportin (SLC40A1) fused in …; remark: listed apart in the source
[3] = target: T2, ferroportin endogenously expressed on …

Row | Binder | FPN EC50 [1] | IC50: T47D Internalization MSA [3] | further results
1 | Isovaleryl-ETH[Dip]PCIK(2Peg20K)[β3hF]K([PEG12-Palmitoyl])RC-NH2 (disulfide 6-12 (inferred)) [Compound 50] | 3.31 nM |  | 
2 | B1 |  |  | FPN EC50 [2]: 25.6 nM
3 | Isovaleryl-ETH[Dip]PCI[dK][β3hF]K([PEG12-Palmitoyl])RC-NH2 (disulfide 6-12 (inferred)) [Compound 27] | 20 nM |  | 
4 | B2 | 9.81 nM |  | 
5 | Isovaleryl-ETHFPCIK([γGlu-C18 diacid])FEPRSKGCK-NH2 (not fully specified (bridges); cysteine pairing not given here) [Compound 222] |  | > 1000 nM | 
6 | B3 |  |  | FPN EC50 [2]: 4.3 nM
7 | Isovaleryl-ETH[Dip]PCIK(Ac)[β3hF]KRC-NH2 (disulfide 6-12 (inferred)) [Compound 42] | > 3000 nM |  | 
8 | Isovaleryl-ETH[Dip]PCIK([2Peg11′-Palmitoyl])[β3hF]K(2Peg20K)RC-NH2 (disulfide 6-12 (inferred)) [Compound 47] | 58.2 nM |  | 
9 | B4 |  | 4.3 nM | 
10 | Isovaleryl-ETH[Dip]PCIK([PEG12-Palmitoyl])[β3hF]K(PEG40KB)RC-NH2 (disulfide 6-12 (inferred)) [Compound 295, listing 1 of 2 here] |  | 9.22 nM | 
11 | B5 |  | 15.4 nM | 
12 | B6 |  | 1.95 nM | 
13 | Isovaleryl-ETHFPCIK([AEEA-AEEA-γGlu-C18 diacid])FEPRSK(Ac)GCT (disulfide 6-16 (inferred)) [Compound 214] |  |  | FPN EC50 [2]: > 3000 nM
14 | Isovaleryl-ETH[Dip]PCIK(Ac)[β3hF]K(2Peg20K)RC-NH2 (disulfide 6-12 (inferred)) [Compound 46] | > 3000 nM |  | 
15 | B7 |  | 2.56 nM | 
16 | B8 |  | 68.9 nM | 
17 | B9 |  | 1.3 nM | 
18 | Isovaleryl-ETH[Dip]PCIK([PEG12-Palmitoyl])[β3hF]K(PEG40KB)RC-NH2 (disulfide 6-12 (inferred)) [Compound 295, listing 2 of 2 here] |  |  | FPN EC50 [2]: 1780 nM
19 | B10 | 5 nM |  | 
